Experimental data as given in patent publication US20190010493A1 (published 2019).

B1: mAKAP RSK binding domain (RBD), mAKAP residues 1694 to 1833 (other, not shown: small tags and cut ends)
chain: ELSLCSEDIVLHKNKIPESNASFRKRLNRSVADESDVNVSMIVNVSCTSACTDDEDDSDLLSSSTLTLTEEELCLKDEDDDSSIATDDEIYEESNLMSGLDYIKNELQTWIRPKLSLTREKKRSGVTDEIKVNKDGGGNE
notes: also called mAKAP RBD
B2: His-RSK3 phosphorylated by ERK (enzyme)
chain: MDLSMKKFAVRRFFSVYLRRKSRSKSSSLSRLEEEGVVKEIDISHHVKEGFEKADPSQFELLKVLGQGSYGKVFLVRKVKGSDAGQLYAMKVLKKATLKVRDRVRSKMERDILAEVNHPFIVKLHYAFQTEGKLYLILDFLRGGDLFTRLSKEVMFTEEDVKFYLAELALALDHLHSLGIIYRDLKPENILLDEEGHIKITDFGLSKEAIDHDKRAYSFCGTIEYMAPEVVNRRGHTQSADWWSFGVLMFEMLTGSLPFQGKDRKETMALILKAKLGMPQFLSGEAQSLLRALFKRNPCNRLGAGIDGVEEIKRHPFFVTIDWNTLYRKEIKPPFKPAVGRPEDTFHFDPEFTARTPTDSPGVPPSANAHHLFRGFSFVASSLIQEPSQQDLHKVPVHPIVQQLHGNNIHFTDGYEIKEDIGVGSYSVCKRCVHKATDTEYAVKIIDKSKRDPSEEIEILLRYGQHPNIITLKDVYDDGKFVYLVMELMRGGELLDRILRQRYFSEREASDVLCTITKTMDYLHSQGVVHRDLKPSNILYRDESGSPESIRVCDFGFAKQLRAGNGLLMTPCYTANFVAPEVLKRQGYDAACDIWSLGILLYTMLAGFTPFANGPDDTPEEILARIGSGKYALSGGNWDSISDAAKDVVSKMLHVDPHQRLTAMQVLKHPWVVNREYLSPNQLSRQDVHLVKGAMAATYFALNRTPQAPRLEPVLSSNLAQRRGMKRLTSTRL
modifications: phosphorylated in vitro with ERK2; sites on this protein not stated here (S360 is named as the ERK site of HA-RSK3 in paragraph 123)
notes: also called Phospho-His-RSK3 (ERK2); not shown: His tag
B3: His-RSK3 phosphorylated by both ERK and PDK1 (enzyme)
chain: MDLSMKKFAVRRFFSVYLRRKSRSKSSSLSRLEEEGVVKEIDISHHVKEGFEKADPSQFELLKVLGQGSYGKVFLVRKVKGSDAGQLYAMKVLKKATLKVRDRVRSKMERDILAEVNHPFIVKLHYAFQTEGKLYLILDFLRGGDLFTRLSKEVMFTEEDVKFYLAELALALDHLHSLGIIYRDLKPENILLDEEGHIKITDFGLSKEAIDHDKRAYSFCGTIEYMAPEVVNRRGHTQSADWWSFGVLMFEMLTGSLPFQGKDRKETMALILKAKLGMPQFLSGEAQSLLRALFKRNPCNRLGAGIDGVEEIKRHPFFVTIDWNTLYRKEIKPPFKPAVGRPEDTFHFDPEFTARTPTDSPGVPPSANAHHLFRGFSFVASSLIQEPSQQDLHKVPVHPIVQQLHGNNIHFTDGYEIKEDIGVGSYSVCKRCVHKATDTEYAVKIIDKSKRDPSEEIEILLRYGQHPNIITLKDVYDDGKFVYLVMELMRGGELLDRILRQRYFSEREASDVLCTITKTMDYLHSQGVVHRDLKPSNILYRDESGSPESIRVCDFGFAKQLRAGNGLLMTPCYTANFVAPEVLKRQGYDAACDIWSLGILLYTMLAGFTPFANGPDDTPEEILARIGSGKYALSGGNWDSISDAAKDVVSKMLHVDPHQRLTAMQVLKHPWVVNREYLSPNQLSRQDVHLVKGAMAATYFALNRTPQAPRLEPVLSSNLAQRRGMKRLTSTRL
modifications: phosphorylated in vitro with ERK2 and PDK1; sites on this protein not stated here (S360 ERK site and S218 PDK1 site are named for HA-RSK3 in paragraph 123)
notes: also called Phospho-His-RSK3 (ERK2 and PDK1); not shown: His tag

What was measured:
[1] = target: T1, full-length mAKAPβ protein with an internal deletion of residues 1257 to 1886 (rat) (UniProt Q9WVC7); test: co-immunoprecipitation, heterologous cells
T1 sequence: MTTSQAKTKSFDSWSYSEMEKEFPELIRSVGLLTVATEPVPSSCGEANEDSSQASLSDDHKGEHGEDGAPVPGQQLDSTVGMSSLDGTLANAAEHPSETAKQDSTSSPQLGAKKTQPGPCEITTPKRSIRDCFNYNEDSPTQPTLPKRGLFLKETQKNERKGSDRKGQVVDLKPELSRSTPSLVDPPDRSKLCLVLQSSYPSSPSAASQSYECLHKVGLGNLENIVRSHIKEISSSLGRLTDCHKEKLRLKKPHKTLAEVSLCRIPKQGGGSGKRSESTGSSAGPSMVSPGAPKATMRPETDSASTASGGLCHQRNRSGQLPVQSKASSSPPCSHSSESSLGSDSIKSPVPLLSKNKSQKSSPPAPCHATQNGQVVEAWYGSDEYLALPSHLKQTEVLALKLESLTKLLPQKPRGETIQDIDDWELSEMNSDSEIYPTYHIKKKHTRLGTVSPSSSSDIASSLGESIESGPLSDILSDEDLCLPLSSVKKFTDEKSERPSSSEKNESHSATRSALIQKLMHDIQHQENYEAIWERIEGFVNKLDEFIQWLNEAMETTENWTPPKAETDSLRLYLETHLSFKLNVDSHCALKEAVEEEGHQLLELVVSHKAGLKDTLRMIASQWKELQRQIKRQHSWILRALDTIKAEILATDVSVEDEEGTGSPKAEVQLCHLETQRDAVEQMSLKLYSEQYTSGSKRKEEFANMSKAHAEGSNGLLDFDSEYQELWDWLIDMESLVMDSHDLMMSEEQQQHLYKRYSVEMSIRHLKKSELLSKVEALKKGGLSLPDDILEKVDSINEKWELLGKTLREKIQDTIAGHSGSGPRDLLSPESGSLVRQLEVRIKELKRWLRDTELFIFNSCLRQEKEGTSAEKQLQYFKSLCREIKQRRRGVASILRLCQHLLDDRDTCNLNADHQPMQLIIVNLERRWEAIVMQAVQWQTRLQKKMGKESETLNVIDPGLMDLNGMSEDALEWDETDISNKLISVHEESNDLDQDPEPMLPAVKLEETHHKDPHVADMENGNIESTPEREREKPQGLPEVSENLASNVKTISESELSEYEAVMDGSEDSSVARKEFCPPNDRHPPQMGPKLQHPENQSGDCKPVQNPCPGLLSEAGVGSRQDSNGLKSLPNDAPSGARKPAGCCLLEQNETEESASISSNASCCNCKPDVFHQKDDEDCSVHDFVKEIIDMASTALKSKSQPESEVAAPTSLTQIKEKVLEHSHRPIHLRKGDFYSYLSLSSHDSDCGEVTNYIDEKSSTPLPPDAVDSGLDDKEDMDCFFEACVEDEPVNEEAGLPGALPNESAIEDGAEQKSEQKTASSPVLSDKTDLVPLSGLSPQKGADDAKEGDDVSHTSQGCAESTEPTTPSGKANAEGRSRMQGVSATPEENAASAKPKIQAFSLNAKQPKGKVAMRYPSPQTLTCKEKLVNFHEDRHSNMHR

[2] = target: T2, N-terminally truncated RSK3 mutant (HA-RSK3 DN30) (human, UniProt Q15349 31-733); test: co-immunoprecipitation in heterologous cells
T2 construct: The range 31-733 is inferred from the label 'DN30'; not shown: hemagglutinin (HA) tag
Excerpt: To address this hypothesis, the inventors defined the mAKAP domains responsible for RSK3 binding. HA-tagged RSK3 was co-expressed in heterologous cells with myc-tagged mAKAPβ fragments and coimmunoprecipitated using a myc-tag antibody (FIGS. 7A and 7B of U.S. Pat. No. 9,132,174). […] As shown, the unique N-terminal domain of RSK3 bound full-length mAKAPβ (FIG. 4D of U.S. Pat. No. 9,132,174). The mAKAP RBD also bound HA-RSK3 1 to 42 (FIG. 7E of U.S. Pat. No. 9,132,174), but not to the N-terminally truncated RSK3 mutant (HA-RSK3 DN30) or the HA-tagged full-length RSK2 (FIG. 7F of U.S. Pat. No. 9,132,174).
Immunoprecipitations: HEK293 and COS-7 cells were transfected with Lipofectamine 2000 (Invitrogen) or Polyethylenimine “Max” (Polysciences). Cells (including myocytes) were lysed in buffer (20 mmol/L HEPES, pH 7.4, 150 mmol/L NaCl, 5 mmol/L EDTA, 0.5% Triton, 50 mmol/L NaF, 1 mmol/L sodium orthovanadate, 1 mmol/L DTT, and protease inhibitors). After centrifugation at 10,000×g for 10 minutes at 4° C., the clarified extracts were used for immunoprecipitation using appropriate antibodies (10 μg purified antibody or 1-5 μL whole serum) and 20 μL protein G sepharose (Millipore, Fastflow) for 3 hours to overnight at 4° C. The beads were washed 3-5 times with lysis buffer, and the immunoprecipitated proteins were eluted with 1× Laemmli buffer for western blotting. […]

[3] = target: T3, bacterially expressed His-tagged mAKAP 1286 to 1833 (rat, UniProt Q9WVC7 1286-1833); test: SPR (BIAcore T100), His-mAKAP 1286-1833 immobilised, phospho-His-RSK3 analyte
T3 construct: Covalently immobilised by amine coupling on a CM5 chip, 200 resonance units; not shown: His tag (pET30-based vector)
T3 sequence: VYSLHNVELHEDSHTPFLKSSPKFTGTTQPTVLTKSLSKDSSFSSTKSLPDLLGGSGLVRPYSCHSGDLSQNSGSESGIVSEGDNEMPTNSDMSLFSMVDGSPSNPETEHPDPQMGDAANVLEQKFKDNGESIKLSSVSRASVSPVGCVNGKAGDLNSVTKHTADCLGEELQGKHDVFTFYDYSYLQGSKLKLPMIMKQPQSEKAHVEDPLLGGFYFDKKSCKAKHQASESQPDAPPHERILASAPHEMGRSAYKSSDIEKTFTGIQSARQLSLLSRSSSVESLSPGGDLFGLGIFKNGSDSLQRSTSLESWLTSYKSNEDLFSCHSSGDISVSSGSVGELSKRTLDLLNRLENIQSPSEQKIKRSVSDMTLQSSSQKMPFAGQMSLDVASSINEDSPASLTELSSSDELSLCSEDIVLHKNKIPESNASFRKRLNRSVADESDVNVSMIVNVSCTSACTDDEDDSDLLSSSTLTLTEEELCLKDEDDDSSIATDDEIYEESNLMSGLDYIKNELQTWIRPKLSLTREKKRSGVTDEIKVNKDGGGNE
Protocol: The inventors next tested whether mAKAP-RSK3 binding is direct (FIG. 7G of U.S. Pat. No. 9,132,174). […] The binding was direct and of high affinity (nanomolar KD). The inventors previously reported that once activated, RSK3 binds mAKAPα less well in cells (Michele 2005).
Surface Plasmon Resonance: SPR analysis was performed using a BIAcore T100. […] (Biacore amine coupling kit) to the surface of a sensor chip (BIAcore type CM5). His-RSK3 analytes (6.25-200 nmol/L) in HBS buffer (10 mmol/L Hepes, pH 7.4, 150 mmol/L NaCl, and 0.005% Surfactant P20) were injected at a flow rate of 30 μL/min for 5 minutes, followed by buffer alone for another 5 minutes. Sensorgrams were processed by BIAcore T100 evaluation software.

Row | Molecule | fold decrease of binding affinity against unphosphorylated RSK3 [3] [fold] | also measured
1 | HA-tagged RSK3 (type 3 p90 ribosomal S6 kinase) (from UniProt Q15349 1-733) (enzyme) | – | reduction of binding against full-length mAKAPβ [1]: > 85%
2 | B1 | – | binding result [2]: no binding
3 | B2 | 5 | –
4 | B3 | 8 | –
